In this experiment the target is T1, mouse ICOS, full length, on cells (mouse, UniProt Q9WVS0 21-200).
T1 construct: also called CHO-mICOS; mouse ICOS+ CHO cells
T1 sequence: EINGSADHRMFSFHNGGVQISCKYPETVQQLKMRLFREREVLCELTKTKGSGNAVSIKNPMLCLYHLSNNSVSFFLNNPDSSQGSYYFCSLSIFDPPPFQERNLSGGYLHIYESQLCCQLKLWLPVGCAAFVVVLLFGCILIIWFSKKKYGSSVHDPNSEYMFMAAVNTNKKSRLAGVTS
Kind of experiment: receptor availability assay, flow cytometry on mouse blood T cells after 2.5 mg/kg i.p. The method, then: ICOS target engagement may also be assessed as measured by receptor availability assay, for example, as follows. Naive mice were i.p. injected with either the isotype control mIgG2a at 2.5 mg/kg or […] with a mouse IgG2a at 2.5 mg/kg. At various time-points post-injection, blood was collected in EDTA coated microtubes via submandibular draw.
Whole blood was Fc blocked using mouse TruStain (BioLegend) for 5 minutes on ice. Following incubation, 100 μl of 2× concentrated extracellular staining antibody mixture was added to each sample for 30 minutes at 4° C. Samples were spun down and fixed and permeabilized in Foxp3 staining buffer (eBioSciences) for 30 minutes at 4° C. Samples were then spun down and resuspended in intracellular antibody stain for 30 minutes at 4° C. Samples were spun down and resuspended in 0.1% PFA. Samples were analyzed on a BD LSRII Fortessa. Tregs were identified as live CD45+ CD3+ CD4+ FoxP3+. Teff cells were identified as live CD45+ CD3+ CD4+ FoxP3−. CD8+ cells were identified as live CD45+ CD3+ CD8+. Fluorescently labeled 37A10S713-mG2a (DyLight 650 conjugated) was used as the staining reagent for ICOS. Receptor availability at each time point was determined using the following formula: […]

B1: 37A10S713-mG2a (antibody, V domains shown)
VH: EVQLVESGGGLVQPGGSLRLSCAASGFTFSDYWMDWVRQAPGKGLVWVSNIDEDGSITEYSPFVKGRFTISRDNAKNTLYLQMNSLRAEDTAVYYCTRWGRFGFDSWGQGTLVTVSS
VL: DIVMTQSPDSLAVSLGERATINCKSSQSLLSGSFNYLTWYQQKPGQPPKLLIFYASTRHTGVPDRFSGSGSGTDFTLTISSLQAEDVAVYYCHHHYNAPPTFGPGTKVDIK
notes: 37A10S713 VH and VL with a mouse IgG2a; also called 37A10S713 with a mouse IgG2a; 37A10S713-mIgG2a
Turning to B1, the binding result was “binds”.

Source of the values: patent publication US20160304610A1 (JOUNCE THERAPEUTICS, published 2016).
